# According to US20160122421A1 (IPIERIAN, published 2016):
# Numbering of substitutions follows the chain as printed.
# B1: humanized IPN002 variant VH2/Vk2 (antibody, V domains shown)
# VH: EVHLVESGGALVKPGGSLRLSCAASGFSFSKYGMSWVRQAPGKGLEWVATISSSGSRTYYPDSVKGRFTISRDNAKNTLYLQMNSLRAEDTAMYYCSISWDGAMDYWGQGTTVTVSS
# VL: DVVMTQSPLSLPVTLGQPASISCKSSQSIVHSNGNTYLEWYLQKPGQSPQLLVYKVSNRFSGVPDRFSGSGSGTDFTLKISRVEAEDVGTYYCFQGSLVPWAFGGGTKVEIK
# B2: IPN002 (antibody, V domains shown)
# VH: B1 VH with R19K, A40T, G42D, G44R, R67Q, N84S, R87K, A88S, T112S
# VL: B1 VL with V3L, S7T, T14S, Q17D, P18Q, Q50K, V88L, V109L
# notes: It is the murine parental antibody; also called IPN2; IPN-2
# B3: VH4/Vk2 (antibody, V domains shown)
# VH: B1 VH with H3Q, S97A
# VL: B1 VL
# notes: member of the group m7; also called humanized IPN002 variant VH4/Vk2
# B4: humanized IPN002 variant VH2/Vk1 (antibody, V domains shown)
# VH: B1 VH
# VL: B1 VL with V3L
# B5: humanized IPN002 variant VH2/Vk3 (antibody, V domains shown)
# VH: B1 VH
# VL: B1 VL with T90V
# B6: VH3/Vk1 (antibody, V domains shown)
# VH: B1 VH with H3Q
# VL: B1 VL with V3L
# notes: member of the group m7; also called humanized IPN002 variant VH3/Vk1
# B7: VH2/Vk4 (antibody, V domains shown)
# VH: B1 VH
# VL: B1 VL with V53I, T90V
# notes: member of the group m7; also called humanized IPN002 variant VH2/Vk4
# B8: VH4/Vk3 (antibody, V domains shown)
# VH: B1 VH with H3Q, S97A
# VL: B1 VL with T90V
# notes: member of the group m7; also called humanized IPN002 variant VH4/Vk3
# Key:
# [1] = target: T1, eTau-4 peptide; assay: relative binding affinity, method not named (Table 4); sixth column, headed eTau 4
# T1 construct: also called synthetic eTau4 polypeptide
# T1 peptide: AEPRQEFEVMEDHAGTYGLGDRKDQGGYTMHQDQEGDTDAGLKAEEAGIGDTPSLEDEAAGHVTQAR
# [2] = target: eTau 4 (FIG. 17); assay: relative binding affinity, method not named (Table 4); fifth column, headed eTau 4
# [3] = target: T2, 383 amino acid recombinant tau (UniProt P10636-6 1-383, biotinylated where printed as biotin-rTau383 (position not given)); assay: Octet
# T2 construct: also called rTau383
# [4] = target: T2, 383 amino acid recombinant tau; assay: relative binding affinity, method not named (Table 4)
# [5] = target: eTau1a (amino acids 2-166 of fetal tau) (Homo sapiens (Human), UniProt P10636 2-541); assay: as above
# [6] = target: T3, eTau 2; assay: as above
# T3 construct: member of the group m9
# T3 polypeptide: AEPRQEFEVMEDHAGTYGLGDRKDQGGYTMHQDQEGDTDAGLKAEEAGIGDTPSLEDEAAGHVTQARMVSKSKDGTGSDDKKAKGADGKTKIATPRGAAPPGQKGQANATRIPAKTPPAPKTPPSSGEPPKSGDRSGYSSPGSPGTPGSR
# [7] = target: T4, eTau 1b; assay: as above
# T4 construct: member of the group m9
# T4 polypeptide: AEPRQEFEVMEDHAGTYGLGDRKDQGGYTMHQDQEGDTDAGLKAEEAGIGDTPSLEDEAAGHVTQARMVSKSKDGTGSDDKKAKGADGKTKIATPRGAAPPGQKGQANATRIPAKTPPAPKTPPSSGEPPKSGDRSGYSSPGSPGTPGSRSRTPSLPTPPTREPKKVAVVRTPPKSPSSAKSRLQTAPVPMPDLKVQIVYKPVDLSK
# T2 sequence (P10636 other isoform, or with tags, fused parts or gaps limits assumed): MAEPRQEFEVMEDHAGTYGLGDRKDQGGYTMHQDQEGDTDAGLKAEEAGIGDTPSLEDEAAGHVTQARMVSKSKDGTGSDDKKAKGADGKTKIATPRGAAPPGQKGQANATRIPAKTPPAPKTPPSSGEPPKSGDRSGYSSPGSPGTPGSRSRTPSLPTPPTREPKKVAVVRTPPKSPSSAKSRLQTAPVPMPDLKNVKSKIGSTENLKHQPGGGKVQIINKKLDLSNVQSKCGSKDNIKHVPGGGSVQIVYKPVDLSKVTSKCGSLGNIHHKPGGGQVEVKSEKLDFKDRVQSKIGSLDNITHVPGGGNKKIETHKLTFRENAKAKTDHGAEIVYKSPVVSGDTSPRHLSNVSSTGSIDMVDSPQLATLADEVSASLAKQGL
Binder,Kd [1] [nM],Kd [2] [nM],Kd [3] [nM],koff [3] [s⁻¹],kon [3] [M⁻¹ s⁻¹],Kd [4] [nM],Kd [5] [nM],Kd [6] [nM],Kd [7] [nM]
B1,0.394,0.294,0.232,4.75e-05,205000,0.199,0.327,0.283,0.229
B2,,,0.206,4.78e-05,233000,,,,
B3,0.467,0.291,1.88,0.000307,163000,0.16,0.191,0.451,0.483
B4,0.321,0.369,,,,0.242,0.281,0.225,0.215
B5,0.411,0.219,1.73,0.000232,134000,0.223,0.327,0.261,0.287
B6,0.921,0.454,1.99,0.000257,129000,0.236,0.241,0.705,0.529
B7,0.671,0.418,1.66,0.000236,142000,0.248,0.343,0.354,0.52
B8,0.629,0.636,0.571,9.39e-05,164000,0.276,0.178,0.473,0.313
